We go through 1 protein from publication PMC2941729 (Molecular Microbiology, 2010).

This data set deals with the molecule itself. The data set is described as follows: SEC. For orientation: In gel filtration, larger molecules generally elute earlier.

B1: G266DΔGAF–His (domain or fragment, Escherichia coli K12, UniProt P37013 171-504, looked up)
chain: MLPGDATPFEAVKQTQMIGLSPGMTQLKKEIEIVAASDLNVLISGETGTGKELVAKAIHEASPRAVNPLVYLNCAALPESVAESELFGHVKGAFTDAISNRSGKFEMADNGTLFLDEIGELSLALQAKLLRVLQYGDIQRVGDDRCLRVDVRVLAATNRDLREEVLAGRFRADLFHRLSVFPLSVPPLRERGDDVILLAGYFCEQCRLRQGLSRVVLSAGARNLLQHYSFPGNVRELEHAIHRAVVLARATRSGDEVILEAQHFAFPEVTLPTPEVAAVPVVKQNLREATEAFQRETIRQALAQNHHNWAACARMLETDVANLHRLAKRLGLKD
For the protein B1, the binding result is recorded as “binds”.
